B1: POU domain, class 3, transcription factor 3, residues 408 to 463; numbered along this chain, P20264 (parent)
chain: KKRTSIEVSVKGALESHFLKCPKPSAQEITNLADSLQLEKEVVRVWFCNRRQKEKR

Variants of: B1
Test: abundance fitness (aPCA) (normalised: wild type 0, dead -1); higher = more abundant; growth selection in yeast, the domain comes from the species named
Details: Homo sapiens

Abundance fitness of substitutions, site by site:
Q52: R -0.138, E 0.057, N -0.17, L -0.131, W -0.185, V -0.112, M -0.194, A 0.041, P -0.705, S 0.014, I -0.186, F -0.205, H -0.113, K -0.112, C -0.126, D 0.034, Y -0.257, G -0.146, T -0.227
R50: P -0.853, I -0.809, M -0.497, W -0.883, F -0.875, E -0.538, Q -0.275, H -0.668, N -0.919, C -0.75, V -0.914, T -0.883, K -0.364, A -0.416, L -0.739, Y -0.889
R56: W -0.272, H -0.277, P -0.226, D -0.247, T -0.05, N -0.143, S -0.151, C -0.435, V -0.039, M 0.002, E 0.093, G -0.068, A -0.046
N49: R -0.278, Y -0.381, T -0.097, K -0.276, Q 0.028, G -0.279, S -0.098, M -0.274, P -0.881, H -0.034, C -0.202, A -0.142, E 0.041, I -0.151, W -0.295, L -0.357, V -0.152, D -0.177
V42: S -0.094, W -0.108, G -0.339, C -0.172, I -0.107, D -0.014, A 0.003, K -0.333, R -0.224, E 0.032, N -0.586, L -0.091, M 0.084, H -0.34, Y -0.02, Q -0.016, F -0.056, P -0.556
K53: A 0.076, S 0.068, D 0.196, H -0.194, F -0.156, N -0.248, E -0.013, Q -0.041, I -0.121, V -0.03, P -0.6, R -0.044, M -0.167, G -0.212, L 0.032, T -0.067, C -0.152, Y -0.288
E54: P -0.543, M -0.148, I -0.748, K -0.658, F -0.598, N -0.474, T -0.281, D 0.058, V -0.252, S -0.365, G -0.234, C -0.366, A -0.185, L -0.365, R -0.485, Q -0.241, H -0.432
V43: P -0.818, T -0.595, M -0.863, L -0.382, S -0.926, E -0.792, C -0.714, F -1.02, Q -0.88, G -0.967, W -0.994, I -0.341, H -0.673, D -0.972, N -0.493, R -0.931
R51: G -0.156, N -0.175, F -0.385, Y 0.243, Q -0.164, A -0.105, I -0.207, H -0.361, C -0.345, L -0.005, K -0.534, M 0.031, P -0.608, E -0.126, W 0.018, V -0.222
R44: E 0.213, S -0.55, G -0.165, V -0.224, W -0.377
K55: M -0.096, V -0.031, L -0.006, R -0.089, D -0.079, F -0.312, I -0.234, N 0.021, W -0.129, C -0.14, Q -0.132, H -0.122, S -0.011, T -0.095, P -0.265, E 0.024, A -0.038, G 0.053
W46: S -0.422, R -0.248
F47: M -0.144, L -0.461, R -1.07, S -0.442, D -0.295
V45: L -0.042, F -0.211, H 0.103, W -0.162, E 0.034, G -0.058, T -0.028, R -0.109, S 0.032, D 0.098, N -0.206, K -0.024, Q 0.052, Y -0.28, C -0.177, M -0.06
E41: Q -0.414, F -1.1, H -0.196, P -0.933, Y -0.625, W -0.3, S -0.243, N -0.318, G -0.305, D 0.037, R -0.352, T -0.308, V -0.884, M -0.534, C -0.54
C48: A -0.12, P -0.657, W -0.113, Y 0.068, N 0.211, D -0.029, S 0.045, T 0.032, V 0.068, R 0.035, E 0.069, K -0.074, G -0.109, L -0.047, M 0.026, Q 0.131, I 0.045
